From publication PMC13337110, “Pericentrosomal Redistribution of the Endoplasmic Reticulum Ensures Organelle Symmetric Inheritance and Mitotic Progression” (Advanced Science, 2026)

Target: T1, 2×Strep-HA-RTN4B (human, UniProt Q9NQC3-2 1-373, when from mitotic cells: mitotic phosphorylation sites S15, S107, S111, S121, S129, S152)
T1 construct: Reticulon 4, isoform RTN4B, human; cDNA GenBank NM_153828.3 amplified from a U2OS cDNA library; N-terminal cytoplasmic region 1-185 and C-terminal RHD; Tag ends read from the printed construct name; also called Reticulon 4; 2×Strep-HA-RTN4B wild-type (WT); source: HeLa, stably expressed; not shown: 2×Strep, N-terminal, kept; HA, N-terminal, kept
T1 sequence (looked up): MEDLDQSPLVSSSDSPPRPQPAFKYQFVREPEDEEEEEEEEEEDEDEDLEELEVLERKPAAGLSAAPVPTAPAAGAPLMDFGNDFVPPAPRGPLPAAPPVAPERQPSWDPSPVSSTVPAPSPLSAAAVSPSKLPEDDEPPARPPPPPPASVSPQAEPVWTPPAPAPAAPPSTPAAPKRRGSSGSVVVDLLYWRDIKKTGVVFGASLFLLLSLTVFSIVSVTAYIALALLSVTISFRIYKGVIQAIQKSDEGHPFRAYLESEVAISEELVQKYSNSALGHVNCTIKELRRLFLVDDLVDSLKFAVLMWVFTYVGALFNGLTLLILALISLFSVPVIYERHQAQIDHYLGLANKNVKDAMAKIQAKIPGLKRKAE
Assay: pull-down; in vitro binding: 2×Strep-HA-RTN4B on Strep-Tactin XT beads incubated with purified GST-Rab11A, 2 h at 4°C; eluted with Strep-Tactin XT elution buffer; Western blot and Coomassie
Conditions: both partners purified

B1: GST-Rab11A (natural protein, human, UniProt P62491-1 1-216, looked up)
chain: MGTRDDEYDYLFKVVLIGDSGVGKSNLLSRFTRNEFNLESKSTIGVEFATRSIQVDGKTIKAQIWDTAGQERYRAITSAYYRGAVGALLVYDIAKHLTYENVERWLKELRDHADSNIVIMLVGNKSDLRHLRAVPTDEARAFAEKNGLSFIETSALDSTNVEAAFQTILTEIYRIVSQKQMSDRRENDMSPSNNVVPIHVPPTTENKPKVQCCQNI
notes: Rab11A, human; cDNA GenBank NM_004663.5 in pGEX-6P-1; also called Recombinant Rab11A; GST-tagged Rab11A; source: E. coli Rosetta (DE3), purified (Glutathione Sepharose 4B; eluted with reduced glutathione or kept on beads); not shown: GST, N-terminal, kept
- binding result: binds
